Source: patent publication US20200299408A1

Key:
[1] = molecular target: human HER2 on cells (human) (UniProt P04626)
[2] = molecular target: HER2 extracellular domain (ECD) (UniProt P04626); test: HER2 KD relative to 4D5 (WT); assay not stated
[3] = molecular target: HER2 extracellular domain (ECD) (UniProt P04626); test: HER2 binding affinity of the HER2 arm; assay and form of HER2 not stated on the sheet or in the legend

- SKBR3 EC50 fold (relative to 4D5) [1]: 9900 fold
- KD fold [2]: 31.2 fold
- Kd [3]: 15.6 nM
Substance: hu4D5.v5 (bispecific antibody)
- EC50 of SKBR3 target cell killing [1]: 0.075 µg/mL
